Assay results published in publication PMC4837182, “Plasmodium falciparum Hsp70-z, an Hsp110 homologue, exhibits independent chaperone activity and interacts with Hsp70-1 in a nucleotide-dependent fashion” (Cell Stress & Chaperones, 2016).

Legend:
[1] = molecular target: T1, recombinant Plasmodium falciparum Hsp70-z (PfHsp70-z) (Plasmodium falciparum); assay: SPR; ProteOn XPR36, ligand amine-coupled to GLC chip, analyte 125-2000 nM at 50 μl/min, PBS-Tween with 20 mM EDTA pH 7.4, 25 °C, Langmuir fit; with 5 mM ADP; conditions: both partners purified
T1 construct: also called PfHsp110c; PfHsp110; not shown: His6, N-terminal, kept

[2] = molecular target: T1, recombinant Plasmodium falciparum …; assay: SPR; ProteOn XPR36, ligand amine-coupled to GLC chip, analyte 125-2000 nM at 50 μl/min, PBS-Tween with 20 mM EDTA pH 7.4, 25 °C, Langmuir fit; with 5 mM ATP; conditions: both partners purified

B1: nucleotide binding domain of PfHsp70-1 (PfHsp70-1NBD) (domain or fragment)
chain: not shown
modifications: assayed without nucleotide or with ADP/ATP; N-terminal His6 tag from pQE30 left out. Locus PF3D7_0818900 (cytosolic PfHsp70-1, UniProt Q8IB24) is from memory, not given; NBD limits are
- Kd [1]: 98.6 nM
- koff [1]: 0.00026 s⁻¹
- kon [1]: 2630 M⁻¹ s⁻¹
- Kd [2]: 2.12 nM
- koff [2]: 9.43e-06 s⁻¹
- kon [2]: 4460 M⁻¹ s⁻¹
